In PMC5150538, “Structural basis of myelin-associated glycoprotein adhesion and signalling” (Nature Communications, 2016):
Numbering of substitutions follows the chain as printed. Names may count otherwise.

B1: Myelin-associated glycoprotein (MAG, Siglec4a): N406Q (protein)
parent chain: MIFLATLPLFWIMISASRGGHWGAWMPSTISAFEGTCVSIPCRFDFPDELRPAVVHGVWYFNSPYPKNYPPVVFKSRTQVVHESFQGRSRLLGDLGLRNCTLLLSTLSPELGGKYYFRGDLGGYNQYTFSEHSVLDIVNTPNIVVPPEVVAGTEVEVSCMVPDNCPELRPELSWLGHEGLGEPTVLGRLREDEGTWVQVSLLHFVPTREANGHRLGCQAAFPNTTLQFEGYASLDVKYPPVIVEMNSSVEAIEGSHVSLLCGADSNPPPLLTWMRDGMVLREAVAKSLYLDLEEVTPGEDGVYACLAENAYGQDNRTVELSVMYAPWKPTVNGTVVAVEGETVSILCSTQSNPDPILTIFKEKQILATVIYESQLQLELPAVTPEDDGEYWCVAENQYGQRATAFNLSVEFAPIILLESHCAAARDTVQCLCVVKSNPEPSVAFELPSRNVTVNETEREFVYSERSGLLLTSILTIRGQAQAPPRVICTSRNLYGTQSLELPFQGAHRLMWAKIGPVGAVVAFAILIAIVCYITQTRRKKNVTESSSFSGGDNPHVLYSPEFRISGAPDKYESEKQRLGSERRLLGLRGESPELDLSYSHSDLGKRPTKDSYTLTEELAEYAEIRVK
B2: Myelin-associated glycoprotein (MAG, Siglec4a): Endo-Hf (protein)
parent chain: B1 parent chain
B3: MAG1–5 wt glycosylated (full extracellular segment of mouse myelin-associated glycoprotein) (domain or fragment, UniProt P20917 20-508, looked up)
chain: GHWGAWMPSTISAFEGTCVSIPCRFDFPDELRPAVVHGVWYFNSPYPKNYPPVVFKSRTQVVHESFQGRSRLLGDLGLRNCTLLLSTLSPELGGKYYFRGDLGGYNQYTFSEHSVLDIVNTPNIVVPPEVVAGTEVEVSCMVPDNCPELRPELSWLGHEGLGEPTVLGRLREDEGTWVQVSLLHFVPTREANGHRLGCQAAFPNTTLQFEGYASLDVKYPPVIVEMNSSVEAIEGSHVSLLCGADSNPPPLLTWMRDGMVLREAVAKSLYLDLEEVTPGEDGVYACLAENAYGQDNRTVELSVMYAPWKPTVNGTVVAVEGETVSILCSTQSNPDPILTIFKEKQILATVIYESQLQLELPAVTPEDDGEYWCVAENQYGQRATAFNLSVEFAPIILLESHCAAARDTVQCLCVVKSNPEPSVAFELPSRNVTVNETEREFVYSERSGLLLTSILTIRGQAQAPPRVICTSRNLYGTQSLELPFQGAHR
modifications: N-linked glycans (made in GnTI- cells); C-mannosylation on W22
notes: Myelin-associated glycoprotein (MAG), mouse, Ig domains 1-5, residues 20-508 (UniProt numbering, starts after the signal peptide); template mouse S-MAG cDNA; Vector pUPE107.03 with a cystatin secretion signal peptide and a C-terminal His6-tag; also called wt MAG1–5; MAG full ectodomain; source: HEK293 GnTI- EBNA1 cells in suspension, transient, secreted; purified (Ni-NTA, SEC)
B4: MAG1–5 wt deglycosylated (domain or fragment, mouse, UniProt P20917 20-508, looked up)
chain: B3 chain
modifications: N-linked glycans trimmed down to single N-Acetylglucosamines by Endo-Hf; C-mannosylation on W22
notes: Myelin-associated glycoprotein (MAG), mouse, Ig domains 1-5, residues 20-508 (UniProt numbering, starts after the signal peptide); template mouse S-MAG cDNA; Same construct as m1 after Endo-Hf treatment; also called deglycosylated MAG1–5; deglycosylated wt MAG1–5; source: HEK293 GnTI- EBNA1 cells in suspension, transient, secreted; purified (Ni-NTA, SEC); deglycosylated with Endo-Hf overnight at …
B5: MAG1–5 N406Q glycosylated (domain or fragment, mouse, UniProt P20917 20-508, looked up)
chain: B3 chain with N387Q
modifications: N-linked glycans (made in GnTI- cells), lacks the N-linked glycan on residue 406
notes: Myelin-associated glycoprotein (MAG), mouse, Ig domains 1-5, residues 20-508 (UniProt numbering), with N406Q; also called N406Q mutant; source: HEK293 GnTI- EBNA1 cells in suspension, transient, secreted; purified (Ni-NTA, SEC)
B6: MAG1–5 N406Q deglycosylated (domain or fragment, mouse, UniProt P20917 20-508, looked up)
chain: B3 chain with N387Q
modifications: N-linked glycans trimmed down to single N-Acetylglucosamines by Endo-Hf
notes: Myelin-associated glycoprotein (MAG), mouse, Ig domains 1-5, residues 20-508 (UniProt numbering), with N406Q; also called deglycosylated MAG1–5 N406Q; source: HEK293 GnTI- EBNA1 cells in suspension, transient, secreted; purified (Ni-NTA, SEC); deglycosylated with Endo-Hf

Legend:
[1] = size exclusion chromatography; settings: glycan lost; control: wt and other MAG constructs
SAXS = settings: glycan lost; control: glycosylated wt MAG1–5
[2] = sedimentation equilibrium AUC, monomer-dimer fit; settings: glycan lost; control: glycosylated wt MAG1–5
[3] = target: the molecule itself; experiment: SAXS; ESRF BM29, SEC buffer (150 mM NaCl, 20 mM HEPES pH 7.5), 20 °C (277 K for deglycosylated MAG1–5 N406Q), single concentration of 33-52 μM for each sample; monomer to dimer
[4] = target: the molecule itself; experiment: AUC; sedimentation equilibrium, SEC buffer (150 mM NaCl, 20 mM HEPES pH 7.5), 20 °C, 7,500, 14,000 and 20,000 r.p.m., global analysis of several concentrations, speeds and wavelengths; monomer to dimer
[5] = target: the molecule itself; experiment: SEC; Superdex200 Hiload 16/60, 150 mM NaCl, 20 mM HEPES pH 7.5

Protein | oligomerisation, other: Rg (SAXS) | Kd [4] | stoichiometry N [4] | further results
B1 | increases, 7.3 vs 6.8 |  |  | oligomerisation [1]: increases
B2 | increases, 7.3 vs 6.8 |  |  | oligomerisation, KD [2]: increases, 167 vs 382
B3 |  | 382 µM | 2 | fraction of dimer (OLIGOMER fit, monomer:dimer ratio at 52 μM) [3]: 0.28 fraction
B4 |  | 167 µM | 2 | 
B5 |  |  |  | binding result [5]: binds
B6 |  |  |  | binding result [3]: binds
